Assay results from patent US20090192084A1.
Values belong to the substance of their own block, whether it stands above or below them.

What was measured:
[1] = target: gp78 (human) (UniProt Q9UKV5); test: Flag co-IP, MudPIT MS, DMSO
[2] = target: DNA damage-binding protein I. DDB1 (human) (UniProt Q16531); test: Flag co-IP, MudPIT MS, DMSO
[3] = target: Kelch-like protein 22. KLEIL22 (human) (UniProt Q53GT1); test: Flag co-IP, MudPIT MS, DMSO
[4] = target: Baculoviral IAP repeat-containing protein 2, IAP2 (human) (UniProt Q13490); test: Flag co-IP, MudPIT MS, DMSO
[5] = target: Praja 2 (human) (UniProt O43164); test: Flag co-IP, MudPIT MS, DMSO
Sequence of Praja 2 (human) (O43164 2-708 limits assumed): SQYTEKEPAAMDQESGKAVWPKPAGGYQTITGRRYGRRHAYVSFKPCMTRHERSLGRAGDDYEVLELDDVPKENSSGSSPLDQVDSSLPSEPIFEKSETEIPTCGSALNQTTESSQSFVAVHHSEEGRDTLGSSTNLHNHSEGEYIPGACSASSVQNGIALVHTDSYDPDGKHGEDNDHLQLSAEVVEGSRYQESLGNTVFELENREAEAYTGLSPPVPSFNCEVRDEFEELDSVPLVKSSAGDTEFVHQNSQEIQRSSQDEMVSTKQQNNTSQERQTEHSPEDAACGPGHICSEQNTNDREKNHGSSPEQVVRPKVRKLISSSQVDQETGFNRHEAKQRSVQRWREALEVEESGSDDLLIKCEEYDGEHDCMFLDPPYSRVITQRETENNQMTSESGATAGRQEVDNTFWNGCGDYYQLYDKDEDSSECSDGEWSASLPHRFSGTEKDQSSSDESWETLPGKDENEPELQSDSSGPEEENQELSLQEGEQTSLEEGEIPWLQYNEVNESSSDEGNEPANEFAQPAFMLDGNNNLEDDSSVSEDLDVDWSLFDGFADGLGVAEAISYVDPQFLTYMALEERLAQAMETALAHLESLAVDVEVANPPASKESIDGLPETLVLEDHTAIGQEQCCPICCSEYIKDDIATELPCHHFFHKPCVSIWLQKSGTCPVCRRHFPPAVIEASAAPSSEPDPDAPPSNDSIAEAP

[6] = target: CUL3-interacting protein I. KLHL12 (human) (UniProt Q53G59); test: Flag co-IP, MudPIT MS, DMSO
Sequence of CUL3-interacting protein I. KLHL12 (human) (Q53G59 whole entry): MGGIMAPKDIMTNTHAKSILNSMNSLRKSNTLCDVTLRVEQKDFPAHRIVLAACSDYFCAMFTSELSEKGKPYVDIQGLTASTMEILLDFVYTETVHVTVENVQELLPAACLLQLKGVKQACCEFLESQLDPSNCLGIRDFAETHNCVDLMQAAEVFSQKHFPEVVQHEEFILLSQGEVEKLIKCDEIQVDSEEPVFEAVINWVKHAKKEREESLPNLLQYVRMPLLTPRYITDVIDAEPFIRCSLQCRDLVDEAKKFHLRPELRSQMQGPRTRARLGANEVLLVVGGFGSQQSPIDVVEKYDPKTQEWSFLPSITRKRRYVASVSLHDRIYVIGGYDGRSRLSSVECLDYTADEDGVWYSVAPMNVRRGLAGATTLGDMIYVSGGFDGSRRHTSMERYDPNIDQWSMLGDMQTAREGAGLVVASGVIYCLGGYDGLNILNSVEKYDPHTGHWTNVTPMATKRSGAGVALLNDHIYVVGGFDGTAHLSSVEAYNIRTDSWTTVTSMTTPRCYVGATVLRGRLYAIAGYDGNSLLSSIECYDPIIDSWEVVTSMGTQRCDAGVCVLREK

[7] = target: EDD1/UBR5 (human) (UniProt O95071); test: Flag co-IP, MudPIT MS, DMSO
[8] = target: UBR1 (human) (UniProt Q8IWV7); test: Flag co-IP, MudPIT MS, DMSO
[9] = target: Cullin 3 (human) (UniProt Q13618); test: Flag co-IP, MudPIT MS, DMSO
[10] = target: UBR2 (human) (UniProt Q8IWV8); test: Flag co-IP, MudPIT MS, DMSO
Sequence of UBR2 (human) (Q8IWV8 2-1755 limits assumed): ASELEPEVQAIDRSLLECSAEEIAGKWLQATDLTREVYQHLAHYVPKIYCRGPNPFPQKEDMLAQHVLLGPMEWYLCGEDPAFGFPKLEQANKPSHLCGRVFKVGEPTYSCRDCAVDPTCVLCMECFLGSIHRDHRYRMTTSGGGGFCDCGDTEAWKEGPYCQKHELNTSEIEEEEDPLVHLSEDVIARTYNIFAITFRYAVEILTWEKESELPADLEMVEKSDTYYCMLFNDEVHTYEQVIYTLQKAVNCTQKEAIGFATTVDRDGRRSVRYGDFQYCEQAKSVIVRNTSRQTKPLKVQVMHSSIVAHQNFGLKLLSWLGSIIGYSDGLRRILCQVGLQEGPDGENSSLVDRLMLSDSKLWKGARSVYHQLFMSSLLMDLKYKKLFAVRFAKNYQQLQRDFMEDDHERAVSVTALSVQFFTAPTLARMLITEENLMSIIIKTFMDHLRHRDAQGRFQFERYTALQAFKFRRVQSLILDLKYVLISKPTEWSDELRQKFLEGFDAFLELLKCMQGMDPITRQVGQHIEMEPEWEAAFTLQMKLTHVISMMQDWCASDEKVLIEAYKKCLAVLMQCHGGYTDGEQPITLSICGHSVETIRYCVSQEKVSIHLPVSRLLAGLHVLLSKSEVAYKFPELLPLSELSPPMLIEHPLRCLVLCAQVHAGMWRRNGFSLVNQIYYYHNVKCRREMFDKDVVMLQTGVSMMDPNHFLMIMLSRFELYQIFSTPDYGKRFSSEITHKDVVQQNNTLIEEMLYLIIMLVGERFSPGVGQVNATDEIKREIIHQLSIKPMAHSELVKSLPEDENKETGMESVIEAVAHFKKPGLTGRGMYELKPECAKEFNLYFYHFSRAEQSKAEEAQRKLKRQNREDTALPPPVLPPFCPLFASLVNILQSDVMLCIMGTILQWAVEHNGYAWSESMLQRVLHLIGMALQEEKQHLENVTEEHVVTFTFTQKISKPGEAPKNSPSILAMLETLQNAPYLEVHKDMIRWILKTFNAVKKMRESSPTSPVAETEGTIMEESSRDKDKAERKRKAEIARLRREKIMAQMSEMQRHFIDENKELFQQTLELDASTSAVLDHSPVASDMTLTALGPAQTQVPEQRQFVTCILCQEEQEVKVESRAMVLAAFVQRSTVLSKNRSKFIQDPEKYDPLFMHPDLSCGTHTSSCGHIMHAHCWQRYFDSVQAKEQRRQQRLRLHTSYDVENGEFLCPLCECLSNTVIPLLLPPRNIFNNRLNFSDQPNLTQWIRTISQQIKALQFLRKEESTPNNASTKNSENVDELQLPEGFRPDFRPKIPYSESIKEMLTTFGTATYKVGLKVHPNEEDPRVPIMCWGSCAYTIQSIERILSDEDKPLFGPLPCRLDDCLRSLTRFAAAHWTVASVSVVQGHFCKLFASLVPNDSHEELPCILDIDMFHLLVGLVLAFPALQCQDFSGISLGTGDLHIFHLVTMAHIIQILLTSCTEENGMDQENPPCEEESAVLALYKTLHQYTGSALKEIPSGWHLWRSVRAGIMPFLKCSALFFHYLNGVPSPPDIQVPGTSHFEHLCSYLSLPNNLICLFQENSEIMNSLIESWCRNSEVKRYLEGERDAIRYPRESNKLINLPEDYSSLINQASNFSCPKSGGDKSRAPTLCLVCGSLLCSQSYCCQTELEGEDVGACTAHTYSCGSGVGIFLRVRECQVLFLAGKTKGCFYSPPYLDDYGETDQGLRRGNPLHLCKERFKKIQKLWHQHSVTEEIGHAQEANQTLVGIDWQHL

[11] = target: Retinoblastoma-associated factor 600, UBR4 (human) (UniProt Q5T4S7); test: Flag co-IP, MudPIT MS, DMSO
[12] = target: PLAP (human) (UniProt Q9Y263); test: Flag co-IP, 293 cells, MudPIT MS
Sequence of PLAP (human) (Q9Y263 whole entry): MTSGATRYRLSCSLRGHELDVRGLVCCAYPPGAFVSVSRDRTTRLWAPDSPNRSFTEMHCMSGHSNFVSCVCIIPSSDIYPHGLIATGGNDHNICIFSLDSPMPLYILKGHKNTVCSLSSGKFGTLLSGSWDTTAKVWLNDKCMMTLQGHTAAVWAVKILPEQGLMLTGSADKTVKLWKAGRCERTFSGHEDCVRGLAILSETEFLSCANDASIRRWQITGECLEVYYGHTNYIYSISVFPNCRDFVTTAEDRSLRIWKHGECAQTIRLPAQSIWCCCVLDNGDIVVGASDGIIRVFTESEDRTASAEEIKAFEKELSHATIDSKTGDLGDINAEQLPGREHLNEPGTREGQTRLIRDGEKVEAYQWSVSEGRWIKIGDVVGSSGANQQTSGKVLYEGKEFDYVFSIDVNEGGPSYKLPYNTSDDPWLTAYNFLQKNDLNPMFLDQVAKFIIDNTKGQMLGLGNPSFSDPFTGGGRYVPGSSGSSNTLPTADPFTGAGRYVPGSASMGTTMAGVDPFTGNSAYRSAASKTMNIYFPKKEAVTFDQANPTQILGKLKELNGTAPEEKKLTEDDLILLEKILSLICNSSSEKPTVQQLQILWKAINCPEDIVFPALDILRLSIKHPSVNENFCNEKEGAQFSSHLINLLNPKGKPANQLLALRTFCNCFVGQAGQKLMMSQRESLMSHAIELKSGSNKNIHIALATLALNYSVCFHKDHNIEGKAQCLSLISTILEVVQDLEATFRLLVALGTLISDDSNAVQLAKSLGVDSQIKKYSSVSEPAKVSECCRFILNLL

[13] = target: T1, VCIP135 (human) (UniProt Q96JH7); test: Flag co-IP, 293 cells, MudPIT MS
T1 sequence (looked up): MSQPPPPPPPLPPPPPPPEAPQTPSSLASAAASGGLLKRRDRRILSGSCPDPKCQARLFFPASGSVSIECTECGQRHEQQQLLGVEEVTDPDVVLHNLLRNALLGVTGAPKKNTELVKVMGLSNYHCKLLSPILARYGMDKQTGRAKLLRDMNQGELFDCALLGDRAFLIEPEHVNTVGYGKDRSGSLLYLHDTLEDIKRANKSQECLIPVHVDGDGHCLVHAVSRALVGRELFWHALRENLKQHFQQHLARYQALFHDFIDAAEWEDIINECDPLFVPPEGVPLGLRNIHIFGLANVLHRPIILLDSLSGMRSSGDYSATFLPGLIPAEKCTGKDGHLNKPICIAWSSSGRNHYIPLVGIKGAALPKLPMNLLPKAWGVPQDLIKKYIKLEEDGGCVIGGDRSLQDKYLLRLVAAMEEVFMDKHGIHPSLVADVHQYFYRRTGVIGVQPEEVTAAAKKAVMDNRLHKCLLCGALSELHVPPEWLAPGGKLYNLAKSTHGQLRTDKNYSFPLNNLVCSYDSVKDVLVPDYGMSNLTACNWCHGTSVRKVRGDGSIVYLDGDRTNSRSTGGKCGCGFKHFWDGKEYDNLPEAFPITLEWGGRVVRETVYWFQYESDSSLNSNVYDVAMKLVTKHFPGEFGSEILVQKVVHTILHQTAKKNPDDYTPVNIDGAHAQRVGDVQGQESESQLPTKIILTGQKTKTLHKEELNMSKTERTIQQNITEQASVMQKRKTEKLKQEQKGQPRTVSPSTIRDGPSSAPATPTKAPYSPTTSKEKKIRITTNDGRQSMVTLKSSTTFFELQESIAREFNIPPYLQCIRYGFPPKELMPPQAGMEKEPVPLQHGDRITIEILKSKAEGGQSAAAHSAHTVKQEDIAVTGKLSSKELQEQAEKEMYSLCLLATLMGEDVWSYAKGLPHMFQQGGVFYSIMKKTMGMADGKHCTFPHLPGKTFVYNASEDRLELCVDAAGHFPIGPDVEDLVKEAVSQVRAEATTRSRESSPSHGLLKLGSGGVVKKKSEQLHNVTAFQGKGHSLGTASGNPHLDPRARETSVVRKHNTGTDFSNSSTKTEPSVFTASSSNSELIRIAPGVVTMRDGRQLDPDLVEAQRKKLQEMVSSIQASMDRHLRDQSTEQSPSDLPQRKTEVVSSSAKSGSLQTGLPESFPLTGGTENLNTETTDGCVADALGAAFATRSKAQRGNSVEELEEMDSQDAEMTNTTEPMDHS

[14] = target: DNA damage-binding protein I. DDB1 (human) (UniProt Q16531); test: Flag co-IP, MudPIT MS, MG132
[15] = target: EDD1/UBR5 (human) (UniProt O95071); test: Flag co-IP, MudPIT MS, MG132
[16] = target: Retinoblastoma-associated factor 600, UBR4 (human) (UniProt Q5T4S7); test: Flag co-IP, MudPIT MS, MG132
[17] = target: CUL4- and DDB I-associated WDR protein 2, WDR26 (human) (UniProt Q9H7D7); test: Flag co-IP, MudPIT MS, DMSO
[18] = target: endogenous NPL4 (human) (UniProt Q8TAT6); test: Flag co-IP, 293 cells, MudPIT MS

Sequence of DNA damage-binding protein I. DDB1 (human) (Q16531 2-1140 limits assumed): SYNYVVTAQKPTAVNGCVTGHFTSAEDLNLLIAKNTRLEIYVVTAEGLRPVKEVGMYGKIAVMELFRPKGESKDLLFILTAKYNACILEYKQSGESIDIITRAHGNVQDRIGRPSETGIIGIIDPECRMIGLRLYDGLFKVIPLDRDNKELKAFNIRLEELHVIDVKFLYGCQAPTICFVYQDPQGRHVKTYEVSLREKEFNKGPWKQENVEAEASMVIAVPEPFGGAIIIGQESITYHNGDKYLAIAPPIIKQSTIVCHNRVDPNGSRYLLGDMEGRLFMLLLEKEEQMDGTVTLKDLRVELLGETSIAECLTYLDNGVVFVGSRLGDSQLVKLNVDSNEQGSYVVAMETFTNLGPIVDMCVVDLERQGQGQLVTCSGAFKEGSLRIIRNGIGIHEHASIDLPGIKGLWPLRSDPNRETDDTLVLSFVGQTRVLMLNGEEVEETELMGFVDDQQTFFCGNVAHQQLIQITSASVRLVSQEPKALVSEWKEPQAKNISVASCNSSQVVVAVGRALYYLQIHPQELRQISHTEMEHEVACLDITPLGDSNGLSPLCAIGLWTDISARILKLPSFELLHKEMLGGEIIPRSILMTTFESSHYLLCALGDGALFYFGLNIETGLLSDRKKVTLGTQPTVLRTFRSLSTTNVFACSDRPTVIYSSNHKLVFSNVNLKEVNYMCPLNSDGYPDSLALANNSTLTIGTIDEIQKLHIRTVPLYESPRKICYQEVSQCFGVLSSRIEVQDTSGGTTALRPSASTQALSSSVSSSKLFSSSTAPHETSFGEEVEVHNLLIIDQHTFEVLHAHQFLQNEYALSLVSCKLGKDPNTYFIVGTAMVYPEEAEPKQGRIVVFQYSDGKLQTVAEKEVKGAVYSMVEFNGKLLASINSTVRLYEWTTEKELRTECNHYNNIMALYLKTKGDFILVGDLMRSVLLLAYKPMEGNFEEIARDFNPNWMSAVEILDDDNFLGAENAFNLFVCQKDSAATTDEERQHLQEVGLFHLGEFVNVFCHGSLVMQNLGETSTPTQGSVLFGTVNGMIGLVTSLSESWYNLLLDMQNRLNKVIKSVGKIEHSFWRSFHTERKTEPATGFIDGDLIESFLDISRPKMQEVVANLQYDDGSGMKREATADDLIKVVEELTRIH

abundance factor (AF) [1]: 3.3
sequence count [1]: 3
spectrum count [1]: 3
abundance factor (AF) [3]: 2.3
sequence count [3]: 2
spectrum count [3]: 2
abundance factor (AF) [4]: 2.3
sequence count [4]: 2
spectrum count [4]: 2
abundance factor (AF) [5]: 3.1
sequence count [5]: 3
spectrum count [5]: 3
abundance factor (AF) [6]: 6.4
sequence count [6]: 2
spectrum count [6]: 5
abundance factor (AF) [7]: 2.6
sequence count [7]: 9
spectrum count [7]: 10
abundance factor (AF) [8]: 0.8
sequence count [8]: 2
spectrum count [8]: 2
abundance factor (AF) [9]: 2.7
sequence count [9]: 3
spectrum count [9]: 3
abundance factor (AF) [10]: 2.8
sequence count [10]: 5
spectrum count [10]: 7
abundance factor (AF) [11]: 3.8
sequence count [11]: 18
spectrum count [11]: 27
sequence count [12]: 26
sequence coverage [12]: 32.1%
spectrum count [12]: 90
sequence count [13]: 2
sequence coverage [13]: 2.9%
spectrum count [13]: 2
abundance factor (AF) [15]: 2
sequence count [15]: 9
spectrum count [15]: 14
abundance factor (AF) [16]: 5.7
sequence count [16]: 30
spectrum count [16]: 74
Substance: Flag-SAKS1 (from UniProt Q04323 1-297)
abundance factor (AF) [2]: 1.3
sequence count [2]: 2
spectrum count [2]: 2
abundance factor (AF) [14]: 0.7
sequence count [14]: 2
spectrum count [14]: 2

abundance factor (AF) [1]: 0.5
sequence count [1]: 2
spectrum count [1]: 2
abundance factor (AF) [5]: 0.7
sequence count [5]: 3
spectrum count [5]: 3
abundance factor (AF) [7]: 0.2
sequence count [7]: 3
spectrum count [7]: 3
abundance factor (AF) [8]: 0.3
sequence count [8]: 3
spectrum count [8]: 3
abundance factor (AF) [17]: 1.2
sequence count [17]: 2
spectrum count [17]: 4
abundance factor (AF) [10]: 0.4
sequence count [10]: 3
spectrum count [10]: 5
abundance factor (AF) [11]: 0.2
sequence count [11]: 3
spectrum count [11]: 5
sequence count [12]: 10
sequence coverage [12]: 20.1%
spectrum count [12]: 15
sequence count [13]: 11
sequence coverage [13]: 14.1%
spectrum count [13]: 12
sequence count [18]: 11
sequence coverage [18]: 20.6%
spectrum count [18]: 209
abundance factor (AF) [15]: 0.8
sequence count [15]: 9
spectrum count [15]: 10
abundance factor (AF) [16]: 0.3
sequence count [16]: 6
spectrum count [16]: 6
Substance: Flag-UBXD8 (from UniProt Q96CS3 1-445)
abundance factor (AF) [2]: 0.3
sequence count [2]: 2
spectrum count [2]: 2
abundance factor (AF) [14]: 0.7
sequence count [14]: 3
spectrum count [14]: 4

abundance factor (AF) [1]: 5.9
sequence count [1]: 3
spectrum count [1]: 3
abundance factor (AF) [3]: 6
sequence count [3]: 3
spectrum count [3]: 3
abundance factor (AF) [4]: 6.1
sequence count [4]: 3
spectrum count [4]: 3
abundance factor (AF) [5]: 5.5
sequence count [5]: 2
spectrum count [5]: 3
abundance factor (AF) [6]: 18.1
sequence count [6]: 6
spectrum count [6]: 8
abundance factor (AF) [8]: 1.4
sequence count [8]: 2
spectrum count [8]: 2
abundance factor (AF) [9]: 37
sequence count [9]: 13
spectrum count [9]: 23
abundance factor (AF) [17]: 46.4
sequence count [17]: 12
spectrum count [17]: 19
abundance factor (AF) [10]: 2.1
sequence count [10]: 2
spectrum count [10]: 3
abundance factor (AF) [11]: 4.5
sequence count [11]: 12
spectrum count [11]: 18
sequence count [12]: 2
sequence coverage [12]: 4%
spectrum count [12]: 2
sequence count [18]: 14
sequence coverage [18]: 24.5%
spectrum count [18]: 33
abundance factor (AF) [15]: 0.2
sequence count [15]: 2
spectrum count [15]: 2
abundance factor (AF) [16]: 2.1
sequence count [16]: 41
spectrum count [16]: 49
Substance: Flag-UBXD7 (from UniProt O94888 1-489)
abundance factor (AF) [2]: 12.4
sequence count [2]: 11
spectrum count [2]: 11
abundance factor (AF) [14]: 2.6
sequence count [14]: 13
spectrum count [14]: 13
